Literature values, collected in article PMC9785887.

How the values were obtained:
[1] = biological target: Neuropilin-1 (Homo sapiens) (UniProt O14786)
[2] = biological target: Integrin αvβ6 (Homo sapiens) (UniProt P06756)
UniProt P06756, sequence (P06756 31-992, chain 1 of 2): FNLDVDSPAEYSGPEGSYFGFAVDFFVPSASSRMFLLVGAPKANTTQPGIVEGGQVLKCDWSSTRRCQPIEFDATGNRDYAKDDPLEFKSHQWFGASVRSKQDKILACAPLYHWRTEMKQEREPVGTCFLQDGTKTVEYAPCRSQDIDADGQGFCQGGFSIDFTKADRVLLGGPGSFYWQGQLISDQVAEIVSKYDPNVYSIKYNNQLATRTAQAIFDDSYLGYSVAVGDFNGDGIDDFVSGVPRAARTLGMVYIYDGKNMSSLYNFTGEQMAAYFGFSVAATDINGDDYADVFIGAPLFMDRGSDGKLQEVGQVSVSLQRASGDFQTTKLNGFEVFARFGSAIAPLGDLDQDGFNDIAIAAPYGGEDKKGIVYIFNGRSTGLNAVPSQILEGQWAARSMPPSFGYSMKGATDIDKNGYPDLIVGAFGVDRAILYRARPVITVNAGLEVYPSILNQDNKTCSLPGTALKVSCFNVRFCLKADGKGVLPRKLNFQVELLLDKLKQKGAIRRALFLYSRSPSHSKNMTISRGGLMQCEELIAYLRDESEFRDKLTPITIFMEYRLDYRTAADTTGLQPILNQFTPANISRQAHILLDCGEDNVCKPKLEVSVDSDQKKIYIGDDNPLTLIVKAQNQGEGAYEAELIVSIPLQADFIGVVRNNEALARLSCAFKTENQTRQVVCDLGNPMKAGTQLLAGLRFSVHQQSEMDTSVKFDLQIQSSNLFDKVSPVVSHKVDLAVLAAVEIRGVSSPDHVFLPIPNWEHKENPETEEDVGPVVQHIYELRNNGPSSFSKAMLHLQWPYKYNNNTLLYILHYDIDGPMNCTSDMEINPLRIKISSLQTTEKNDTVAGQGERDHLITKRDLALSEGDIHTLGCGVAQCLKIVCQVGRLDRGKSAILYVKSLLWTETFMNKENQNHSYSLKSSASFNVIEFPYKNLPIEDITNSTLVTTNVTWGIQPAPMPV
UniProt P06756, sequence (P18564 22-709, chain 2 of 2, further chain): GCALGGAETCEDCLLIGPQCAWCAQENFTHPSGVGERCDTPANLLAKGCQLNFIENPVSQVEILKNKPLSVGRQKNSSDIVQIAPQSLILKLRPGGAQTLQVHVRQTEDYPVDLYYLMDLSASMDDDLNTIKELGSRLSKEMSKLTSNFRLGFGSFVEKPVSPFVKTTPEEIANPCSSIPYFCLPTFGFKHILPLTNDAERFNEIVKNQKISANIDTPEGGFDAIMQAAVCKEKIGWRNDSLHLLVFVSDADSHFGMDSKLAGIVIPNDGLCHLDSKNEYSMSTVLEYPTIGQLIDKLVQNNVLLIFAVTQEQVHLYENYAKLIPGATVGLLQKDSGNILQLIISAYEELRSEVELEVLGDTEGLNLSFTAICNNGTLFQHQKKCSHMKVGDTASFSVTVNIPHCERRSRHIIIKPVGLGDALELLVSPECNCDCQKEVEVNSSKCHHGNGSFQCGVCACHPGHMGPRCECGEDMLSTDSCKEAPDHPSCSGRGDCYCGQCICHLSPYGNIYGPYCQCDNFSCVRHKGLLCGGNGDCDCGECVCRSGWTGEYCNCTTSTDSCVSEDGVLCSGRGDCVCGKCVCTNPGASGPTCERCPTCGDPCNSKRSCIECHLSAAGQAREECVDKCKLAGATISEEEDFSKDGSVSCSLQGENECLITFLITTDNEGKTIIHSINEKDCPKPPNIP

UniProt O14786, sequence (O14786 22-856): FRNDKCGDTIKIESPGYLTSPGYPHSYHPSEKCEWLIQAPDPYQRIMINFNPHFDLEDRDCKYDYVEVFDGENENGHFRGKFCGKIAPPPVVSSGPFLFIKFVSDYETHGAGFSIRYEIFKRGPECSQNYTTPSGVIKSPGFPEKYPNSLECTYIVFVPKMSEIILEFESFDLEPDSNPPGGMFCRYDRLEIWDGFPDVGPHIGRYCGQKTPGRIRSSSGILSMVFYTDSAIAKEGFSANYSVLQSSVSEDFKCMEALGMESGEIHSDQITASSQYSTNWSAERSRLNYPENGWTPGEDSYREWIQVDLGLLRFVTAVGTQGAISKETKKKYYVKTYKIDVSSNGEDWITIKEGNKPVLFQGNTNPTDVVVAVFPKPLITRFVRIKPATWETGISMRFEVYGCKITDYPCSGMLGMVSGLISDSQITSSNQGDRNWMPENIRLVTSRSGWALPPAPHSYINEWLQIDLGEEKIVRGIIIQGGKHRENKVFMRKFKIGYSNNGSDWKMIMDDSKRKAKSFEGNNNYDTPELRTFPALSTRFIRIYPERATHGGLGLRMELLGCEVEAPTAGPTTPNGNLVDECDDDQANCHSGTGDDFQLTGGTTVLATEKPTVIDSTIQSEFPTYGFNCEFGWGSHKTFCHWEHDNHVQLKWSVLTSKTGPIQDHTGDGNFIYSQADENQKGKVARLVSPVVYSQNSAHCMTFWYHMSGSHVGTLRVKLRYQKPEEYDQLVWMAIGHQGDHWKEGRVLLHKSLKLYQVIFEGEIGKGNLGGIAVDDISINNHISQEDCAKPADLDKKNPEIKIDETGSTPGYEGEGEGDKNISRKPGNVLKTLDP
Chromogranin A peptide CgA39-63, sequence (P10645 57-81): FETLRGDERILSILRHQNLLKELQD

Kd [1] [nM] | Ki [2] [nM] | Substance
3.49 | – | Chromogranin A 1-373 1-373 (from UniProt P10645)
– | 15.5 | Chromogranin A peptide CgA39-63
